Where two headings read alike, the source gives them in different places.
What was measured:
Pf-SSB crystallized form = Pf-SSB crystallized form (Plasmodium falciparum 3D7, UniProt Q8I415 77-194); test: X-ray crystallography
[1] = molecular target: T1, Pf-SSB (wild type, lacks apicoplast localization signal) (Plasmodium falciparum 3D7, UniProt Q8I415 77-284); test: Trp fluorescence quenching titration
[2] = molecular target: T1, Pf-SSB (wild type, lacks apicoplast …); test: Trp fluorescence quenching titration; remark: listed apart in the source

B1: (dT)35 (ssDNA)
DNA: TTTTTTTTTTTTTTTTTTTTTTTTTTTTTTTTTTT
binding result (Pf-SSB crystallized form): binds | binding result [1]: binds

B2: (dT)70 (ssDNA)
DNA: TTTTTTTTTTTTTTTTTTTTTTTTTTTTTTTTTTTTTTTTTTTTTTTTTTTTTTTTTTTTTTTTTTTTTT
binding result [2]: binds

From PMC4017622
